This is an account of results in article PMC8411030.

The target in this experiment is N-terminal domain of NOEY2 (NOEY2-N), LexA fusion (pGilda/LexA-NOEY2-N) (human) (UniProt O95661). Kind of experiment: two-hybrid.
Chain of UniProt O95661 (O95661 whole entry, the tested form may be a part): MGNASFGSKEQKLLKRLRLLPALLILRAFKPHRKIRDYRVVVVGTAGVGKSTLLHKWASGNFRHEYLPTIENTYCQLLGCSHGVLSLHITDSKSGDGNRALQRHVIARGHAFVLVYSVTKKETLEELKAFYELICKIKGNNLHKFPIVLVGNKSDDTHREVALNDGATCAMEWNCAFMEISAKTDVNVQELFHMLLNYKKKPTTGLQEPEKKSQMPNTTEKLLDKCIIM

As to “VEGFR-2, B42 fusion (pJG4-5) (from UniProt P35968 1-1356) (receptor)”, the β-galactosidase activity was determined as 92.2 unit.
